Test results as given in patent US20160116468A1.

Assays:
[1] = target: endogenous EGFR expressed in COS7 cells; experiment: diffusion coefficient change of endogenous EGFR (labelled Fab probe), COS7 cells
[2] = target: endogenous EGFR expressed in COS7 cells; experiment: diffusion coefficient of endogenous EGFR after against before cetuximab, COS7 cells
[3] = target: endogenous EGFR expressed in COS7 cells; experiment: diffusion coefficient change of endogenous EGFR (Alexa Fluor 647 Fab of mAb 199.12 as probe) in a COS7 cell, 20 µg/ml cetuximab

cetuximab (antibody)
change in diffusion coefficient (%) [1]: 40%
Dc2 value as percent of Dc1 value [2]: 60%
change in diffusion coefficient (%) [3]: 40%
